Reference: patent US20090203760A1 (UNIVERSITY OF QUEENSLAND, published 2009)
Bridges are numbered along the chain shown (N, C = ends). Where no end group is shown, it is not given here. [ ]: non-standard residue; d: D form. NMeF = CN[C@@H](Cc1ccccc1)C(=O)O; dCha = N[C@H](CC1CCCCC1)C(=O)O

T1: human C5a receptor (C5aR) on intact human polymorphonuclear leukocytes (PMNs) (human, UniProt P21730 1-350)
T1 sequence (looked up): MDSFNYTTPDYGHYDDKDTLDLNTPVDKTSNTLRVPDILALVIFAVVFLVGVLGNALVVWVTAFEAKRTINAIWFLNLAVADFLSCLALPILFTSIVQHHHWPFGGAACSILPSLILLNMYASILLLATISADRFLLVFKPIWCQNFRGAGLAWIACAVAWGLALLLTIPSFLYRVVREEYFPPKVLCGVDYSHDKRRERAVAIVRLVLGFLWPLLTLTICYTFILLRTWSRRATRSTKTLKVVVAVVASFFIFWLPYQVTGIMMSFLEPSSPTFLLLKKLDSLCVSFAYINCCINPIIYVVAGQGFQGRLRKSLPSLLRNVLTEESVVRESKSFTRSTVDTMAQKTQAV


Tests used:
[1] = biological target: human C5a receptor (C5aR) on intact human polymorphonuclear leukocytes (PMNs) (human) (UniProt P21730); test: cell-based or functional assay
[2] = biological target: human C5a receptor (C5aR) on intact human polymorphonuclear leukocytes (PMNs) (human) (UniProt P21730); test: 50% inhibition of [125I]C5a binding to intact PMNs
[3] = biological target: human C5a receptor (C5aR) on intact human polymorphonuclear leukocytes (PMNs) (human) (UniProt P21730); test: 50% inhibition of [125I]C5a binding to intact PMNs; column head prints 'IC50 (M)', the pD2 shows µM
[4] = biological target: T1, human C5a receptor (C5aR) on intact …; test: cell-based or functional assay
[5] = biological target: T1, human C5a receptor (C5aR) on intact …; test: competition with 125I-C5a for binding to intact human PMNs, 4 °C
[6] = biological target: T1, human C5a receptor (C5aR) on intact …; test: cell-based or functional assay; remark: listed apart in the source
[7] = biological target: T1, human C5a receptor (C5aR) on intact …; test: 50% inhibition of [125I]C5a binding to intact PMNs; column head prints 'IC50 (M)', the pD2 shows µM
[8] = biological target: T1, human C5a receptor (C5aR) on intact …; test: unlabelled C5a competing with 125I-C5a for binding to intact human PMNs, 4 °C

Row | Molecule | pD2: 50% inhibition in the ability of C5a (100 nM) to cause the release of MPO from PMNs [1] | pD2 [2] | IC50: 50% inhibition in the ability of C5a (100 nM) to cause the release of MPO from PMNs [1] [µM] | also measured
1 | AcF-[KPdChaWr] (peptide) | 7.07 | – | – | –
2 | F-[KPdChaWR] (peptide) | 6.69 | 6.5 | 0.2 | IC50 [2]: 300 nM
3 | F-[KPdChaWr] (peptide) | 5.55 | 5.09 | 2.8 | IC50 [2]: 8100 nM
4 | Ac-FKK[dCha]W[dR] (lactam 2-C; SMILES CC(=O)N[C@@H](Cc1ccccc1)C(=O)N[C@H]1CCCCNC(=O)[C@@H](CCCNC(=N)N)NC(=O)[C@H](Cc2c[nH]c3ccccc23)NC(=O)[C@@H](CC2CCCCC2)NC(=O)[C@H](CCCCN)NC1=O) [AcF-[KKdChaWr]] | 4.88 | 3.94 | 13 | IC50 [3]: 116 µM
5 | cyclo(FWP[dCha]W[dR]) (SMILES N=C(N)NCCC[C@H]1NC(=O)[C@H](Cc2c[nH]c3ccccc23)NC(=O)[C@@H](CC2CCCCC2)NC(=O)[C@@H]2CCCN2C(=O)[C@H](Cc2c[nH]c3ccccc23)NC(=O)[C@H](Cc2ccccc2)NC1=O) [[FWPdChaWr]] | – | 4.37 | – | IC50 [3]: 43 µM
6 | FKMXWR (N-acetyl-Phe at 1; D-cyclohexylalanine (dCha) at 4; D-Arg at 6; cyclic over residues 2-6 (Lys side chain to C-terminus)) [AcF-[KMdChaWr]] | – | 4.81 | – | IC50 [3]: 15 µM
7 | [NMeF]KP[dCha]W[dR]-NH2 (Linear; C-terminal amide of 7; also called ID NO:8) [MeFKP(dCha)Wr-CONH2] | – | – | – | antagonist activity against 7 (myeloperoxidase release from human PMNs) [4]: ~5 fold; IC50 [5]: 14 µM; Antagonist Potency IC50: 50% reduction in myeloperoxidase secretion from human PMNs mediated by 100 nM C5a [6]: 0.5 µM
8 | [NMeF]KPLWR (Linear; dCha replaced by Leu; also called 10; ID NO:10) [MeFKPLWR] | – | – | – | IC50 [5]: 144 µM; Antagonist Potency IC50: 50% reduction in myeloperoxidase secretion from human PMNs mediated by 100 nM C5a [6]: > 1000 µM
9 | KFXPXWR (N-acetyl-Lys at 1; ornithine (O) at 3; D-cyclohexylalanine (dCha) at 5; D-Arg at 7; cyclic over residues 3-7 (ornithine side chain to C-terminus), Cyclic) [AcKF-[OPdChaWr]] | – | – | – | IC50 [7]: 11 µM
10 | [NMeF]KP[dCha]WR (Linear; 7 with the chirality of Arg changed; also called ID NO:9) [MeFKP(dCha)WR] | – | – | – | IC50 [5]: 11 µM
11 | human recombinant C5a (ligand, UniProt P01031 678-751, looked up, tracer form: Hunter/Bolton labelled 125I (New England Nuclear); unlabelled competitor form: none stated, mature) TLQKKIEEIAAKYKHSVVKKCCYDGACVNNDETCEQRAARISLGPRCIKAFTECCVVASQLRANISHKDMQLGR | – | – | – | IC50 [8]: 0.8 nM

The next lines start with results.

Row | pD2: 50% inhibition in the ability of C5a (100 nM) to cause the release of MPO from PMNs [1] | pD2 [2] | IC50: 50% inhibition in the ability of C5a (100 nM) to cause the release of MPO from PMNs [1] [µM] | Molecule | also measured
12 | 7.3 | 4.6 | – | AcF-[OPdChaWr] (peptide) | in vitro activity as a C5a antagonist in PMNs, against 17 [1]: 100 fold
13 | 7.41 | 7.21 | 0.04 | F-[OPdChaWR] (peptide) | IC50 [2]: 60 nM
14 | 5.79 | 5.51 | 1.6 | F-[OPdChaWr] (peptide) | IC50 [2]: 3100 nM
